Values of other authors as cited in publication PMC10229114.

Tests used:
[1] = target: SLy1 SAM (Homo sapiens) (UniProt O75995)
[2] = target: SDF-1α (Homo sapiens) (UniProt P48061)

Sequence of SLy1 SAM (O75995 252-316): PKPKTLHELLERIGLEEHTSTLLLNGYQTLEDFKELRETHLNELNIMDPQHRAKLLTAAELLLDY
Sequence of SDF-1α (P48061 24-88): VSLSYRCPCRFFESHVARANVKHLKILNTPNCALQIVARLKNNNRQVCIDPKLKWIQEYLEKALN

| Kd [1] [µM] | Kd [2] [µM] | Substance |
| --- | --- | --- |
| 117 |  | SLy1 SAM (from UniProt O75995) |
|  | 150 | SDF-1α (from UniProt P48061) |
